For 1 substance, stoichiometry N results are on record in PMC5755574.

This experiment deals with Alcaligenes xylosoxidans copper nitrite reductase (Alcaligenes xylosoxidans). Nature of the experiment: crystal structure; as-isolated AxNiR crystals, space group R3, one monomer in the asymmetric unit, trimer formed by crystal symmetry; SRX resting state at 1.6 Å (BL41XU, SPring-8, cryo); the SF-ROX structure (SACLA XFEL, 100 K, 1.6 Å) from the same batch of crystals has near-identical global architecture.

Take “Alcaligenes xylosoxidans copper nitrite reductase (enzyme)”: the stoichiometry N turned out to be 3.

As usually defined, the stoichiometry N is the number of molecules, sites or subunits per partner or assembly.
